{
  "source": "patent US20100062980A1",
  "about": "“THERAPEUTIC USES OF BETA-ANTAGONISTS” (priority 2006, published 2010)",
  "molecules": {"B1": {"name": "β-cardiotoxin: three-finger toxin protein isolated from Ophiophagus hannah (king cobra) venom, SEQ ID No.3, β-adrenergic receptor blocker (protein)", "chain": "RKCLNTPLPLIYTTCPIGQDKCVKMTIKKLPSKYDVIRGCIDICPKSSADVEVLCCDTNKCNK"}},
  "key": {"[1]": {"tested_on": "Swiss albino male mice", "assay_type": "in vivo", "details": "mice", "from_the_text": "(§1) Swiss albino male mice (˜20 g) were used for the in vivo toxicity study. Male Sprague-Dawley (SD) rats were used for electrocardiogram (ECG) monitoring (3-4 weeks old, ˜80-100 g) and the Langendorff isolated perfused heart experiments (8 weeks old, ˜250 g). Animals were acquired from the university Laboratory Animal Center (LAC) and were acclimatized to the Animal Holding Unit surroundings for at least 3 days prior to the experiments. Animals were kept under standard conditions with food and water available ad lib. All animal experiments were conducted according to the protocol (776/05a) approved by the Institutional Animal Care and Use Committee (IACUC) of the National University of Singapore.\n(§2) The protein was dissolved in 200 μl of 0.9% NaCl (Braun, Malaysia) and administered through the intra-peritoneal (i.p.) route for the in vivo toxicity study in mice. Intra-tail vein (i.t.v.) administration was done in the ECG monitoring study in rats. The various protein doses were dissolved in 200 μl of 0.9% NaCl solution and injected into the tail vein using a 27 G ½ needle (Becton Dickinson, Franklin Lakes, N.J.) held at an angle of about 10° to the tail. The infusion was made very slowly and at a steady rate.\nAfter purification of the protein from snake venom, i.p. doses of 1 mg/kg, 10 mg/kg and 100 mg/kg were administered to healthy male mice (three animals per group) and the symptoms were observed and recorded. 0.9% NaCl was injected as control. Postmortem examinations were conducted on the animals after their death/sacrifice."}, "[2]": {"tested_on": "extrinsic pathway of blood coagulation (human plasma)", "assay": "Anticoagulant activity, prothrombin time", "assay_type": "biochemical", "details": "50 μM protein per assay, vs control", "procedure": "(§3) The anticoagulant activity of the purified protein was tested by two coagulation tests using a BBL fibrometer. Blood plasma was collected from healthy human volunteers.\nProthrombin time—The prothrombin times were measured according to the method of Quick (25). 100 μl of 50 mM Tris-HCl buffer (pH 7.4), 100 μl of plasma and 50 μl of the protein dissolved in the assay buffer were preincubated for 2 min at 37° C. Clotting was initiated by the addition of 150 μl of thromboplastin with calcium reagent (Sigma-Aldrich, St Louis, Mo.)."}, "[3]": {"tested_on": "intrinsic pathway of blood coagulation (human plasma)", "assay": "Anticoagulant activity, recalcification time", "assay_type": "biochemical", "details": "50 μM protein per assay, vs control", "procedure": "as §3\nRecalcification time—The recalcification times were measured according to the method of Langdell et al. (26). 100 μl of 50 mM Tris-HCl buffer (pH 7.4), 100 μl of plasma and 50 μl of the protein dissolved in the assay buffer were preincubated for 2 min at 37° C. Clotting was initiated by the addition of 50 μl of 50 mM CaCl2."}, "[4]": {"tested_on": "Langendorff isolated perfused rat hearts", "assay": "Langendorff isolated perfused heart", "details": "5 μM in KH solution, 10 min", "procedure": "Rats were anesthetized with 7% chloral hydrate (5 ml/kg). 2 ml of 50 I.U. heparin (David Bull Laboratories, Warwick, UK) was injected i.p. 15 min prior to sacrificing the animal. The heart was excised rapidly and placed in oxygenated Krebs-Henseleit (KH) solution (in mM/1: NaCl 118.0, KCl 4.5, KH2PO4 1.4, MgSO4 1.2, NaHCO3 25, CaCl2 1.4 and glucose 11; pH 7.4) before the aorta was cannulated on the Langendorff apparatus. Non-recirculating mode of retrograde perfusion with KH solution was carried out at a constant flow (6-7 ml/min) at 37° C. The buffer was continuously bubbled with 95% O2 and 5% CO2. The hearts were allowed to equilibrate for 30 min and in study groups the buffer flow was switched to a second reservoir which contained 5 μM of the protein dissolved in KH solution, plain KH solution was passed for further 15 min in case of control group.\nA water-filled latex balloon was attached to a pressure transducer and inserted through the mitral valve into the left ventricle (LV) through an incision in the left atrium. The pressure transducer was connected to a Powerlab (ADInstruments, Castle Hill, NSW, Australia) data recording system. The following indices of cardiac performance were measured and averaged from ten beats for each condition: heart rate (HR, in beats/min) and left ventricle diastolic end pressure (LVDEP, in mmHg), which is an index of contractile activity. […]"}, "[5]": {"tested_on": "anesthetized male rats", "assay": "Electrocardiogram monitoring and heart rate determination", "assay_type": "in vivo, Sprague-Dawley rats", "details": "i.t.v., 1 mg/kg, 10 min after administration (FIG. 8)", "from_the_text": "as §1, §2\nFor electrocardiogram (ECG) measurements, Sprague-Dawley rats were anesthetized with an i.p. dose of 7% chloral hydrate (5 ml/kg). […]"}},
  "note": "“Also recorded” adds a separate entry of the source.",
  "data": [
    {"molecule": "B1", "values": [
      {"measurement": "postmortem examination", "setting": "[1]; i.p., 100 mg/kg", "result": "did not reveal any hemorrhage or visual damage to internal organs"},
      {"measurement": "time to death", "setting": "[1]; i.p., 100 mg/kg", "result": "about 30 min"},
      {"measurement": "dose up to which the protein was not lethal", "setting": "[1]; intraperitoneal", "result": "≤ 10", "unit": "mg/kg"},
      {"measurement": "change in clotting time, prothrombin time", "setting": "[2]", "result": "does not show any hemolytic or anticoagulant activity; also recorded: did not cause any significant changes in the clotting time"},
      {"measurement": "change in clotting time, recalcification time", "setting": "[3]", "result": "does not show any hemolytic or anticoagulant activity; also recorded: did not cause any significant changes in the clotting time"},
      {"measurement": "change in contractility (LVDEP)", "setting": "[4]", "result": "without any significant change in the contractility; also recorded: without affecting the contractility"},
      {"measurement": "change in heart rate", "setting": "[4]", "result": "dose-dependent decrease of the heart rate; also recorded: marked reduction in the heart rate"},
      {"measurement": "change in heart rate (ECG)", "setting": "[5]", "result": "dose-dependent decrease of the heart rate; also recorded: decrease in the heart rate; also recorded: dose-dependent decrease in heart rate"}
    ]}
  ]
}
